Source: patent US12258605B2, “Alkane oxidation by modified hydroxylases” (The California Institute of Technology, priority 2005, dated 2025)

B1: P450PMO: P450 BM-3 variant, SEQ ID NO:125; 7-7 plus G443A and D698G; propane monooxygenase (protein)
chain: TIKEMPQPKTFGELKNLPLLNTDKPVQALMKIADELGEIFKFEAPGCVTRYISSQRLIKEACDESRFDKNLSQELKFFRDFGGDGLFTSWTHEINWKKAHNILLPSFSQQAMKGYHAMMVDIAVQLVQKWERLNADEHIEVSEDMTRLTLDTIGLCGFNYRFNSFYRDQPHPFIISMVRALDEVMNKPQRANPDDPAYDENKRQCQEDIKVMNDLVDKIIADRKARGEQSDDLLTQMLNGKDPETGEPLDDGNISYQIITFLIAGHETTSGLLSFALYFLVKNPHVLQKVVEEAARVLVDPVPSYKQVKQLKYVGMVLNEALRLWPTFPAFSLYAKEDTVLGGEYPLEKGDEVMVLIPQLHRDKTVWGDDVEEFRPERFENPSAIPQHAFKPFGNGQRACIGQQFALHEATLVLGMMLKHFDFEDHTNYELDIKETLTLKPEAFVVKAKSKKIPLGGIPSPSTGQSAKKVRKKAENAHNTPLLVLYGSNMGTAEGTARDLADIAMSKGFAPQVATLDSHAGNLPREGAVLIVTASYNGHPPDNAKQFVDWLDQASADEVKGVRYSVFGCGDKNWATTYQKVPAFIDETLAAKGAENIADRGEADASDDFEGTYEEWREHMWSDVAAYFNLDIENSEDNKSTLSLQFVDSAADMPLAKMHGAFSTNVVASKELQQPGSARSTRHLEIELPKEASYQEGGHLGVIPRNYEGTVNRVTARFGLDASQQIRLEAEEEKLAHLPLAKTVSVEELLQYVELQDPVTRTQLRAMAAKTVCPPHKVELEALLEKQAYKEQVLAKRLTMLELLEKYPACEMKFSEFIALLPSIRPRYYSISSSPRVDEKQASITVSVVSGEAWSGYGEYKGIASNYLAELQEGDTITCFISTPQSEFTLPKDPETPLIMVGPGTGVAPFRGFVQARKQLKEQGQSLGEAHLYFGCRSPHEDYLYQEELENAQSEGIITLHTAFSRMPNQPKTYVQHVMEQDGKKLIELLDQGAHFYICGDGSQMAPAVEATLMKSYADVHQVSEADARLWLQQLEEKGRYAKDVWAG
modifications: Mutant P450PMO protein sequence
notes: 7-7 plus G443A and D698G; propane monooxygenase
B2: Wild-type BM-3: wild-type cytochrome P450 BM-3 from Bacillus megaterium, SEQ ID NO:1 (protein, listed as Bacillus megaterium)
chain: TIKEMPQPKTFGELKNLPLLNTDKPVQALMKIADELGEIFKFEAPGRVTRYLSSQRLIKEACDESRFDKNLSQALKFVRDFAGDGLFTSWTHEKNWKKAHNILLPSFSQQAMKGYHAMMVDIAVQLVQKWERLNADEHIEVPEDMTRLTLDTIGLCGFNYRFNSFYRDQPHPFITSMVRALDEAMNKLQRANPDDPAYDENKRQFQEDIKVMNDLVDKIIADRKASGEQSDDLLTHMLNGKDPETGEPLDDENIRYQIITFLIAGHETTSGLLSFALYFLVKNPHVLQKAAEEAARVLVDPVPSYKQVKQLKYVGMVLNEALRLWPTAPAFSLYAKEDTVLGGEYPLEKGDELMVLIPQLHRDKTIWGDDVEEFRPERFENPSAIPQHAFKPFGNGQRACIGQQFALHEATLVLGMMLKHFDFEDHTNYELDIKETLTLKPEGFVVKAKSKKIPLGGIPSPSTEQSAKKVRKKAENAHNTPLLVLYGSNMGTAEGTARDLADIAMSKGFAPQVATLDSHAGNLPREGAVLIVTASYNGHPPDNAKQFVDWLDQASADEVKGVRYSVFGCGDKNWATTYQKVPAFIDETLAAKGAENIADRGEADASDDFEGTYEEWREHMWSDVAAYFNLDIENSEDNKSTLSLQFVDSAADMPLAKMHGAFSTNVVASKELQQPGSARSTRHLEIELPKEASYQEGDHLGVIPRNYEGIVNRVTARFGLDASQQIRLEAEEEKLAHLPLAKTVSVEELLQYVELQDPVTRTQLRAMAAKTVCPPHKVELEALLEKQAYKEQVLAKRLTMLELLEKYPACEMKFSEFIALLPSIRPRYYSISSSPRVDEKQASITVSVVSGEAWSGYGEYKGIASNYLAELQEGDTITCFISTPQSEFTLPKDPETPLIMVGPGTGVAPFRGFVQARKQLKEQGQSLGEAHLYFGCRSPHEDYLYQEELENAQSEGIITLHTAFSRMPNQPKTYVQHVMEQDGKKLIELLDQGAHFYICGDGSQMAPAVEATLMKSYADVHQVSEADARLWLQQLEEKGRYAKDVWAG

Columns and labels:
[1] = Halomethane reactions (formaldehyde, PFBHA, GC-ECD): bromomethane; assay type: biochemical
Experimental: Halomethane reactions: Reactions with chloromethane, bromomethane, and iodomethane were carried out in 1 mL-scale using halomethane-saturated buffer (100 mM phosphate pH 8.0) and 50-500 nM purified protein. 900 μL buffer were added with protein, incubated for 15 seconds, and then added with 100 μL NADPH regeneration solution (100 units/mL IDH, 70 mg/mL isocitrate, 1.5 mg/ml NADP+). Solution were sealed and stirred for 30 minutes at 25° C. To reduce background levels of formaldehyde to a minimum, buffers were prepared using HPLC-grade water and autoclaved twice prior to use. Formaldehyde concentration in the reaction solutions was determined through derivatization with o-(2,3,4,5,6-pentafluorobenzyl)hydroxylamine hydrochloride (PFBHA) and gas chromatography. […] Organic phase was removed, diluted 1/100 v/v, and analyzed on a Shimadzu GC-17A gas chromatograph. […] Quantification was carried out using a calibration curve and solutions at known concentration of formaldehyde. […]
Along with activity on propane, P450PMO also hydroxylates ethane (TTN˜2,500), despite ethane's higher C—H bond energy (101.0 kcal mol^−1 versus 98.6 kcal mol^−1 for propane). […] Reactions with purified P450 variants and the halomethanes were analyzed for formaldehyde formation (FIG. 42). […] Activity on chloromethane was detected at lower levels (0.5-1% of propane activity) and in fewer P450 variants. […]

[2] = palmitate; cited from earlier work
[3] = palmitic acid; cited from earlier work
[4] = Substrate profile on C2 to C10 alkanes (TTN normalized, MTN); assay type: biochemical; settings: highest TTN in the alkane series
Experimental: Reactions on alkanes. Reactions with alkanes from pentane to decane were carried out at 3 mL-scale using 100 mM KPi pH 8.0 buffer containing 2% ethanol (to allow alkane solubilization) and purified protein. 2.5 mL KPi buffer were added with 60 μL of 90 mM alkane solution in ethanol (final conc.=1.8 mM), 150 μL enzyme solution at 1 μM (final conc.=50 nM), and 300 μL NADPH regeneration solution (100 units/mL isocitrate dehydrogenase, 70 mg/mL isocitrate, 1.5 mg/ml NADP^+). Vials were sealed and stirred for 24 hours at 4° C. 1 mL-aliquot of the reaction was removed, added with 10 μl internal standard (25 mM 1-bromohexane in ethanol), and extracted with 200 μl chloroform (30 sec vortexing, 1 min centrifugation at 10000 g). The organic phase was removed and analyzed by gas chromatography. Reactions with ethane, propane, and butane were carried out as described for longer alkanes with the only difference that alkane-saturated KPi buffer was used. […] Propane and butane reactions were analyzed by direct injection of reaction solution on the GC using 1-pentanol as internal standard. Ethane reaction products were functionalized (see below) and analyzed by GC using 1-butanol as internal standard. […]
TTNs for each variant-substrate pair were determined using standardized reaction conditions (identical enzyme and substrate concentration, incubation time, cofactor regeneration system) (Table 18). […]

Molecule	turnover rates, halomethane dehalogenase activities ([1]; CH3Cl, CH3Br, CH3I, estimated from 30 minute-reactions)	bromomethane dehalogenase activity ([1]; formaldehyde formation)	Coupling efficiency [2]	catalytic efficiency [2]	hydroxylation at the ω-2 position [3]	MTN (Maximal Turnover Number) [4]
B1	0.5-5 min^−1	1-5 % of the propane activity				
B2			93%	6e+07 M⁻¹ s⁻¹	48%	150
